Measured values reported in patent US20210292422A1 (published 2021).

Columns and labels:
Test in all cases: BLI (Octet)
Frizzled 1 (Fzd1) = Frizzled 1 (Fzd1) (UniProt Q9UP38 111-230)
LRP6E3E4 = biological target: T1, LRP6E3E4 (UniProt O75581 631-1246)
T1 chain: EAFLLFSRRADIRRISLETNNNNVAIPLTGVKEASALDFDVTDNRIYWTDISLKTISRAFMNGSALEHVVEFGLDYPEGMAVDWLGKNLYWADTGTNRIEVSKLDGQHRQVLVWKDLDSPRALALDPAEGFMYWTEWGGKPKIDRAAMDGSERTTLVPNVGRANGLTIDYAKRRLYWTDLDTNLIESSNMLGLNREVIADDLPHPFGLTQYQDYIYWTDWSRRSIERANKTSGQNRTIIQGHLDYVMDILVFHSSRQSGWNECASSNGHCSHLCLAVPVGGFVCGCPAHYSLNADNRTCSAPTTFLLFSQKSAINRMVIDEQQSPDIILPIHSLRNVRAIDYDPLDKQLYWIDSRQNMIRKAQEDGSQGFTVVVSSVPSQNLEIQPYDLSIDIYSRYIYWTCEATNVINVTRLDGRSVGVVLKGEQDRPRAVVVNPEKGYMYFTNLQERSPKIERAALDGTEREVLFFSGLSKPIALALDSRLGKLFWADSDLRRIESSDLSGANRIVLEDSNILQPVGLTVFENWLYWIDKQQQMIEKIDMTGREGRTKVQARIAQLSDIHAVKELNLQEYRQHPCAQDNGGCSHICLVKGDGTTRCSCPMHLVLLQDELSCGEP

LRP6E1E2 = biological target: T2, LRP6E1E2 (UniProt O75581 20-630)
T2 chain: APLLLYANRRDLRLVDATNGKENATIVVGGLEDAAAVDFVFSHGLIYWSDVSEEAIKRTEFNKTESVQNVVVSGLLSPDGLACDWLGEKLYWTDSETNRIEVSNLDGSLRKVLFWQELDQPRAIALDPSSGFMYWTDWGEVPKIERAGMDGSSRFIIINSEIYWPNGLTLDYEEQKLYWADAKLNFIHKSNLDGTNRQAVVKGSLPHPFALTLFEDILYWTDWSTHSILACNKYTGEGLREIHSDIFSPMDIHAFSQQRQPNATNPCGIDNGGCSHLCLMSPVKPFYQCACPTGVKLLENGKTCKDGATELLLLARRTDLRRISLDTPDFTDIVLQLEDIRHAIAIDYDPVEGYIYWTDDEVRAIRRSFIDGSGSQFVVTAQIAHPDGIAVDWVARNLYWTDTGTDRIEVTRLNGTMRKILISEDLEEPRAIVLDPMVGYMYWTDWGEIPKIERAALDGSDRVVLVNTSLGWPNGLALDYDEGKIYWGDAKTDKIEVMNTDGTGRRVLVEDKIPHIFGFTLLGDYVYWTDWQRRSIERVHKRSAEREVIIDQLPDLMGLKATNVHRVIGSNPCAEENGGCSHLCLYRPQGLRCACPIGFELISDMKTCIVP

| Kd (Frizzled 1 (Fzd1)) | Kd (LRP6E3E4) | other results | Binder |
| --- | --- | --- | --- |
| 2500 pM |  |  | αGFP:5:F1:Fc (bispecific antibody) QVQLVESGGGLVQPGGSLRLSCAASGFTFSRYGMHWVRQAPGKGLEWVSGISSIGSNTYYADSVKGRFTISRDNSKNTLYLQMNSLRAEDTAVYYCARWYKTYIDVWGQGTLVTVSSGGGGSGGGGSGGGGSDIELTQPPSVSVAPGQTARISCSGDNLGKKYVYWYQQKPGQAPVLVIYGDDERPSGIPERFSGSNSGNTATLTISGTQAEDEADYYCASYDSSHILIVFGGGTKLTVLGSGSGEVQLVESGGGLVQPGGSLRLSCAASGFTFSHYTLSWVRQAPGKGLEWVSVISGDGSYTYYADSVKGRFTISSDNSKNTLYLQMNSLRAEDTAVYYCARNFIKYVFANWGQGTLVTVSSGGGGSGGGGSGGGGSDIELTQPPSVSVAPGQTARISCSGDNIGSFYVHWYQQKPGQAPVLVIYDKSNRPSGIPERFSGSNSGNTATLTISGTQAEDEADYYCQSYANTLSLVFGGGTKLTVLGSGSGDKTHTCPPCPAPEAAGGPSVFLFPPKPKDTLMISRTPEVTCVVVDVSHEDPEVKFNWYVDGVEVHNAKTKPREEQYNSTYRVVSVLTVLHQDWLNGKEYKCKVSNKALGAPIEKTISKAKGQPREPQVYTLPPSREEMTKNQVSLTCLVKGFYPSDIAVEWESNGQPENNYKTTPPVLDSDGSFFLYSKLTVDKSRWQQGNVFSCSVMHEALHNHYTQKSLSLSPGK |
|  | 500 pM |  | L2:5:αGFP:Fc (bispecific antibody) EVQLVESGGGLVQPGGSLRLSCAASGFTFTSYYISWVRQAPGKGLEWVAEISPYSGSTYYADSVKGRFTISADTSKNTAYLQMNSLRAEDTAVYYCALRARPPIRLHPRGSVMDYWGQGTLVTVSSGSAASGSSGGSSSGADIQMTQSPSSLSASVGDRVTITCRASQDVSTAVAWYQQKPGKAPKLLIYSASFLYSGVPSRFSGSGSGTDFTLTISSLQPEDFATYYCQQSYTTPPTFGQGTKVEIKGSGSGQVQLVESGGGLVQPGGSLRLSCAASGFTFSRYGMHWVRQAPGKGLEWVSGISSIGSNTYYADSVKGRFTISRDNSKNTLYLQMNSLRAEDTAVYYCARWYKTYIDVWGQGTLVTVSSGGGGSGGGGSGGGGSDIELTQPPSVSVAPGQTARISCSGDNLGKKYVYWYQQKPGQAPVLVIYGDDERPSGIPERFSGSNSGNTATLTISGTQAEDEADYYCASYDSSHILIVFGGGTKLTVLGSGSGDKTHTCPPCPAPEAAGGPSVFLFPPKPKDTLMISRTPEVTCVVVDVSHEDPEVKFNWYVDGVEVHNAKTKPREEQYNSTYRVVSVLTVLHQDWLNGKEYKCKVSNKALGAPIEKTISKAKGQPREPQVYTLPPSREEMTKNQVSLTCLVKGFYPSDIAVEWESNGQPENNYKTTPPVLDSDGSFFLYSKLTVDKSRWQQGNVFSCSVMHEALHNHYTQKSLSLSPGK |
|  |  | Kd (LRP6E1E2): 16000 pM | L1:5:αGFP:Fc (bispecific antibody) DVKLVESGGGLVKLGGSLRLSCAASGFSFSTSYMSWVRQTPEKRLELVAAINLNGGSTYYSDTVKGRFTISRDNAKNTLYLQMSSLKSEDTAFYYCASELAGYGTPFAYWGQGTLVTVSAGSAASGSSGGSSSGADIVLTQSPATLSVTPGDSVSLSCKASQSISYNLHWYQQKSHESPRLLIKYTSQSISGIPSRFSGSGSGTDFTLTINNVETEDFGMYFCQQSNSWPLTFGAGTKLEVKGSGSGQVQLVESGGGLVQPGGSLRLSCAASGFTFSRYGMHWVRQAPGKGLEWVSGISSIGSNTYYADSVKGRFTISRDNSKNTLYLQMNSLRAEDTAVYYCARWYKTYIDVWGQGTLVTVSSGGGGSGGGGSGGGGSDIELTQPPSVSVAPGQTARISCSGDNLGKKYVYWYQQKPGQAPVLVIYGDDERPSGIPERFSGSNSGNTATLTISGTQAEDEADYYCASYDSSHILIVFGGGTKLTVLGSGSGDKTHTCPPCPAPEAAGGPSVFLFPPKPKDTLMISRTPEVTCVVVDVSHEDPEVKFNWYVDGVEVHNAKTKPREEQYNSTYRVVSVLTVLHQDWLNGKEYKCKVSNKALGAPIEKTISKAKGQPREPQVYTLPPSREEMTKNQVSLTCLVKGFYPSDIAVEWESNGQPENNYKTTPPVLDSDGSFFLYSKLTVDKSRWQQGNVFSCSVMHEALHNHYTQKSLSLSPGK |
| 200 pM |  |  | F1:5:αGFP:Fc (bispecific antibody) EVQLVESGGGLVQPGGSLRLSCAASGFTFSHYTLSWVRQAPGKGLEWVSVISGDGSYTYYADSVKGRFTISSDNSKNTLYLQMNSLRAEDTAVYYCARNFIKYVFANWGQGTLVTVSSGGGGSGGGGSGGGGSDIELTQPPSVSVAPGQTARISCSGDNIGSFYVHWYQQKPGQAPVLVIYDKSNRPSGIPERFSGSNSGNTATLTISGTQAEDEADYYCQSYANTLSLVFGGGTKLTVLGSGSGQVQLVESGGGLVQPGGSLRLSCAASGFTFSRYGMHWVRQAPGKGLEWVSGISSIGSNTYYADSVKGRFTISRDNSKNTLYLQMNSLRAEDTAVYYCARWYKTYIDVWGQGTLVTVSSGGGGSGGGGSGGGGSDIELTQPPSVSVAPGQTARISCSGDNLGKKYVYWYQQKPGQAPVLVIYGDDERPSGIPERFSGSNSGNTATLTISGTQAEDEADYYCASYDSSHILIVFGGGTKLTVLGSGSGDKTHTCPPCPAPEAAGGPSVFLFPPKPKDTLMISRTPEVTCVVVDVSHEDPEVKFNWYVDGVEVHNAKTKPREEQYNSTYRVVSVLTVLHQDWLNGKEYKCKVSNKALGAPIEKTISKAKGQPREPQVYTLPPSREEMTKNQVSLTCLVKGFYPSDIAVEWESNGQPENNYKTTPPVLDSDGSFFLYSKLTVDKSRWQQGNVFSCSVMHEALHNHYTQKSLSLSPGK |
|  | 800 pM |  | αGFP:5:L2:Fc (bispecific antibody) QVQLVESGGGLVQPGGSLRLSCAASGFTFSRYGMHWVRQAPGKGLEWVSGISSIGSNTYYADSVKGRFTISRDNSKNTLYLQMNSLRAEDTAVYYCARWYKTYIDVWGQGTLVTVSSGGGGSGGGGSGGGGSDIELTQPPSVSVAPGQTARISCSGDNLGKKYVYWYQQKPGQAPVLVIYGDDERPSGIPERFSGSNSGNTATLTISGTQAEDEADYYCASYDSSHILIVFGGGTKLTVLGSGSGEVQLVESGGGLVQPGGSLRLSCAASGFTFTSYYISWVRQAPGKGLEWVAEISPYSGSTYYADSVKGRFTISADTSKNTAYLQMNSLRAEDTAVYYCALRARPPIRLHPRGSVMDYWGQGTLVTVSSGSAASGSSGGSSSGADIQMTQSPSSLSASVGDRVTITCRASQDVSTAVAWYQQKPGKAPKLLIYSASFLYSGVPSRFSGSGSGTDFTLTISSLQPEDFATYYCQQSYTTPPTFGQGTKVEIKGSGSGDKTHTCPPCPAPEAAGGPSVFLFPPKPKDTLMISRTPEVTCVVVDVSHEDPEVKFNWYVDGVEVHNAKTKPREEQYNSTYRVVSVLTVLHQDWLNGKEYKCKVSNKALGAPIEKTISKAKGQPREPQVYTLPPSREEMTKNQVSLTCLVKGFYPSDIAVEWESNGQPENNYKTTPPVLDSDGSFFLYSKLTVDKSRWQQGNVFSCSVMHEALHNHYTQKSLSLSPGK |
